Blank lines part the entries; values can stand above or below the substance they belong to.
Tests used:
Experiment in all cases: crystal structure
[1] = biological target: NITR11 V domain and membrane proximal stalk region, disulfide-linked homodimer (channel catfish (Ictalurus punctatus))
[2] = biological target: NITR11 (N50D) V region protein (channel catfish (Ictalurus punctatus))
[3] = biological target: NITR10 V region protein (novel immune-type receptor 10, Ig V domain) (channel catfish (Ictalurus punctatus))
[4] = biological target: NITR11 V region protein (novel immune-type receptor 11, Ig V domain) (channel catfish (Ictalurus punctatus))
[5] = biological target: NITR10 (D50N) V region protein (channel catfish (Ictalurus punctatus))

stoichiometry N [1]: 2
Substance: NITR11 V domain and membrane proximal stalk region, disulfide-linked homodimer (domain or fragment)

stoichiometry N [2]: 2
Substance: NITR11 (N50D) V region protein (domain or fragment)

stoichiometry N [3]: 2
Substance: NITR10 V region protein (novel immune-type receptor 10, Ig V domain) (domain or fragment)

stoichiometry N [4]: 2
Substance: NITR11 V region protein (novel immune-type receptor 11, Ig V domain) (domain or fragment)

stoichiometry N [5]: 2
Substance: NITR10 (D50N) V region protein (domain or fragment)
